The term EC50 (read off the curve) denotes the concentration that produces a half-maximal response. A high value points to lower potency in that assay.

Assay [1] concerns the target human- or mouse-derived ROR1 antigen (Sino Biological). The experiment in a line: ELISA on coated ROR1 antigen (human or mouse not said), OD450. (In an ELISA, binding on a coated surface is turned into a signal by an enzyme label.)
Assay [2] shares this target. As to the kind of experiment: ELISA on coated ROR1 antigen (Sino Biological), conjugate against parent antibody P015044.
The target is the same in assay [3]. As to the kind of experiment: ELISA on coated ROR1 antigen (Sino Biological), conjugate against parent antibody P015004.
Assay [4] has the same target. The experiment in a line: ELISA on coated ROR1 antigen (Sino Biological), conjugate against parent antibody P015042.

B1: P015044 (antibody, V domains shown)
VH: EVQLLESGGGLVQPGGSLRLSCAASGFTFSNYAMHWVRQAPGKGLEWVSIIYPDDDTRYNPSFRGRFTISRDNSKNTLYLQMNSLRAEDTAVYYCARDLLYAGDYWGQGTLVTVSS
VL: QSVLTQPPSASGTPGQRVTISCGGNNIESKAVHWYQQLPGTAPKLLIYANNKRPSGVPDRFSGSKSGTSASLAISGLRSEDEADYYCQSYDSNKVVFGGGTKLTVL
In turn, B1 showed a 50% effective concentration (EC50 (read off the curve)) in assay [1] of 0.8 nM.

B2: P015044-vc-PAB-MMAE (antibody, IgG1, V domains shown)
VH: B1 VH
VL: B1 VL
modifications: maleimidocaproyl-valine-citrulline-p-aminobenzyloxycarbonyl monomethyl auristatin E on cysteine sulfhydryls of reduced disulfides; positions not given; average 3.0 drugs per antibody
B2 came in with an EC50 (read off the curve) in assay [1] of 2 nM. In addition, the Affinity compared to parent antibody (%) in assay [2] is 82.7%.

B3: P015004 (antibody, V domains shown)
VH: EVQLLESGGGLVQPGGSLRLSCAASGFTFSDYAMAWVRQAPGKGLEWVSIIYPGDSETIYSPSFEGRFTISRDNSKNTLYLQMNSLRAEDTAVYYCARDTYWEGYFDLWGQGTLVTVSS
VL: EIVLTQSPGTLSLSPGERATLSCRASQGISNYLAWYQQKPGQAPRLLIYDASNLESGIPDRFSGSGSGTDFTLTISRLEPEDFAVYYCQQYANLPYTFGQGTKVEIK
In the case of B3, the EC50 (read off the curve) in assay [1] is 0.8 nM.

B4: P015004-vc-PAB-MMAE (antibody, IgG1, V domains shown)
VH: B3 VH
VL: B3 VL
modifications: maleimidocaproyl-valine-citrulline-p-aminobenzyloxycarbonyl monomethyl auristatin E on cysteine sulfhydryls of reduced disulfides; positions not given; average 3.0 drugs per antibody
With B4, the EC50 (read off the curve) in assay [1] worked out at 2 nM. Further, in assay [3], the Affinity compared to parent antibody (%) turned out to be 80.3%.

B5: P015042 (antibody, V domains shown)
VH: EVQLLESGGGLVQPGGSLRLSCAASGFTFSDYAMSWVRQAPGKGLEWVSVISSDGGSIYYADSVKGRFTISRDNSKNTLYLQMNSLRAEDTAVYYCAKDRSRDMEVDFDYWGQGTLVTVSS
VL: QSVLTQPPSASGTPGQRVTISCSGSSSNIGSNYVTWYQQLPGTAPKLLIYDSSQRPSGVPDRFSGSKSGTSASLAISGLRSEDEADYYCGTWDYSLSGYVFGGGTKLTVL
Turning to B5, in assay [1], the half-maximal effective concentration (EC50 (read off the curve)) is 0.5 nM.

B6: P015042-vc-PAB-MMAE (antibody, IgG1, V domains shown)
VH: B5 VH
VL: B5 VL
modifications: maleimidocaproyl-valine-citrulline-p-aminobenzyloxycarbonyl monomethyl auristatin E on cysteine sulfhydryls of reduced disulfides; positions not given; average 3.3 drugs per antibody
The molecule B6 yielded an EC50 (read off the curve) in assay [1] of 2 nM. Also, the Affinity compared to parent antibody (%) in assay [4] is 99.3%.

For the origin of these results see patent US20260028400A1.
